Measurements as given in patent publication US20140087995A1 (published 2014).
Numbered stars: 1 amine (or outer) side, 2 acyl side, 3 side chain; on linkers, the order of the positions; unused ones are H or OH. Bridge positions count the residues as written; N and C are the ends. Side chains are listed from the residue outwards. Ends that are not written are not given here. * marks the point of attachment. C20 diacid = O=C(O)CCCCCCCCCCCCCCCCCCC(=O)*; γGlu = O=C(O)[C@H](CCC(=O)[*:2])N[*:1]; AEEA = NCCOCCOCC(=O)O

T1: rat amylin receptor (rat calcitonin receptor + rat RAMP 3) (rat, UniProt P32214 25-516; Q9JJ73 23-147)
T1 construct: whole, on cells; Membranes prepared from transiently transfected BHK tk'ts 13 cells; also called rAmylin-R; rat amylin 3(a) receptor
T1 sequence (looked up) 1: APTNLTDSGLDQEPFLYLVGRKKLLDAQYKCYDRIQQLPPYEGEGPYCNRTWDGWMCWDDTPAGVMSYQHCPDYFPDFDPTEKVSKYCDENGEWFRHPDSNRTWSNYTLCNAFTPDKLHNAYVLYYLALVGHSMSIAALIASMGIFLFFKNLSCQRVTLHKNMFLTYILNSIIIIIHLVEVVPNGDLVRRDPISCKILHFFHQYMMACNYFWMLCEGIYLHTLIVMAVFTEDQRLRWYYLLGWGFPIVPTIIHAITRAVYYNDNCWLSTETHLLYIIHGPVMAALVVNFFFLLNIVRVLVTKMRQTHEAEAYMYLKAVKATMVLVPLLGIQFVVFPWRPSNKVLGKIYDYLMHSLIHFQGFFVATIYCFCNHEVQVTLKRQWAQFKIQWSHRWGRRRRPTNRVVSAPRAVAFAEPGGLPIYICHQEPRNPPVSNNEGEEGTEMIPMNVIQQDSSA
T1 sequence (looked up) 2: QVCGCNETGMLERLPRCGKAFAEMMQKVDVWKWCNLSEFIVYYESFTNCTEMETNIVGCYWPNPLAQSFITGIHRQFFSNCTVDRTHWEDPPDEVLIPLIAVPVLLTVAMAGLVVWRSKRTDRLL

T2: rat calcitonin receptor (rat, UniProt P32214 25-516)
T2 construct: whole, on cells; Membranes prepared from transiently transfected BHK tk'ts 13 cells; also called rCTR; rat calcitonin (a) receptor
T2 sequence (looked up): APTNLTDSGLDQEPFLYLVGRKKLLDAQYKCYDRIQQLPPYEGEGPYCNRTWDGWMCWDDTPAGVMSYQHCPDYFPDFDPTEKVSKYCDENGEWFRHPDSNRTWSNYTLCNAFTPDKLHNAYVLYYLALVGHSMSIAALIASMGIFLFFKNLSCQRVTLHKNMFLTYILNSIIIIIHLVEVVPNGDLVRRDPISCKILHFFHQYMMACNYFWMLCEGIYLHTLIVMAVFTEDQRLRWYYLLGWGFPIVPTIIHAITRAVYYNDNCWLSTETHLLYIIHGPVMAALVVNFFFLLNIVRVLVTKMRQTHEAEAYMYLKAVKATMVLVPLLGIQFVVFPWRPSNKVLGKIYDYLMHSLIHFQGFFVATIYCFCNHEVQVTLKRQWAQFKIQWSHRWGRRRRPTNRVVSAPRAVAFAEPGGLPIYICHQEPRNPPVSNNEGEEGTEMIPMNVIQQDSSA

T3: human calcitonin receptor (human, UniProt P30988 25-474)
T3 construct: whole, on cells; Membranes from stably transfected BHK cells; also called hCTR; hCT
T3 sequence (looked up): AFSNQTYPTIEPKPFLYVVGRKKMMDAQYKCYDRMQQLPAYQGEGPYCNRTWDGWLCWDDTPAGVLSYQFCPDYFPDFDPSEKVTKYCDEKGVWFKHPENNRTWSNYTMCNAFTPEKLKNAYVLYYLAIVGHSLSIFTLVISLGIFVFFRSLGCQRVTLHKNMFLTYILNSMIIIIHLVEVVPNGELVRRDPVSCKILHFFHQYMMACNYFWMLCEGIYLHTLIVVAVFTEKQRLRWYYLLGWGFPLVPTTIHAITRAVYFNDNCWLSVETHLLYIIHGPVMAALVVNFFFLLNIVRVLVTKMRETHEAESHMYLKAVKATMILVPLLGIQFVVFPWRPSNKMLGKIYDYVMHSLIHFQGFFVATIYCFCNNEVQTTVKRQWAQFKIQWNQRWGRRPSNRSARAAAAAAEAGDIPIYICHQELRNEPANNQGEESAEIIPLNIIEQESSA


Tests used:
[1] = target: T1, rat amylin receptor (rat calcitonin …); assay: SPA competition vs 125I-rat amylin, membranes (Assay VI)
rat calcitonin receptor [2] = target: T2, rat calcitonin receptor; assay: SPA competition vs 125I-calcitonin, membranes (Assay VIII)
rat calcitonin receptor [3] = target: T2, rat calcitonin receptor; assay: ratio of IC50 on rat calcitonin receptor to IC50 on rat amylin receptor
[4] = target: T3, human calcitonin receptor; assay: ratio of IC50 on human calcitonin receptor to IC50 on human amylin receptor
Method: The resulting pellet was resuspended, homogenized and centrifuged (20.000 rpm, 15 min) in a buffer containing 20 mM Na-HEPES and 0.1 mM EDTA (pH 7.4, buffer 2). The resulting pellet was resuspended in buffer 2 and protein concentration was measured (BCA protein Assay, Pierce). The homogenate was kept cold during the whole procedure. The membranes were kept at −80° C. until use. The assay was performed in a 384 well Optiplate (PerkinElmer) in a total volume of 40 ul. Membranes were mixed with SPA beads. Final concentration of membranes 35 ng/μL final and SPA beads was 0.05 mg/well. Test-compounds were dissolved in DMSO and further diluted in assay buffer (50 mM Hepes, pH 7.4, 1 mM CaCl2, 5 mM MgCl₂, 0.1% OA and 0.02% Tween20). […] The final mixture was incubated with shaking at 400 rpm for 120 min at 25° C. prior to centrifugation (1500 rpm, 10 min). Samples were analyzed on TopCounter™ (Packard). The IC₅₀ was calculated using (one site binding competition analysis) GraphPad Prism5 as a measure of receptor affinity.
Membranes were prepared in the following way; the cells were rinsed with PBS and incubated with Versene for approximately 5 min before harvesting. The cells were flushed with PBS and the cell-suspension was centrifuged for 5 min at 1000 rpm. Cells were homogenized (Ultrathurrax) in a buffer containing 20 mM Na-HEPES and 10 mM EDTA (pH 7.4) and centrifuged at 20.000 rpm for 15 min. The resulting pellet was resuspended, homogenized and centrifuged (20.000 rpm, 15 min) in a buffer containing 20 mM Na-HEPES and 0.1 mM EDTA (pH 7.4, buffer 2). The resulting pellet was resuspended in buffer 2 and protein concentration was measured (BCA protein Assay, Pierce). The homogenate was kept cold during the whole procedure. The membranes were kept at −80° C. until use. Assay was performed in a 384 well Optiplate (PerkinElmer) in a total volume of 40 ul. Membranes were mixed with SPA beads.

Binder | IC50 [1] [nM] | IC50 (rat calcitonin receptor [2]) [nM] | Ratio rCT/rAmylin binding (rat calcitonin receptor [3]) | Ratio hCT/hAmylin binding [4]
K([γGlu-γGlu-C20 diacid])CNTATCATQRLAEFLRHSSPNFGAIPSSTNVGPETY-NH2 (disulfide 2-7 (inferred)) | 0.182 | 16.1 | 88.5 | 17.6
K([AEEA-AEEA-γGlu-C20 diacid])CNTATCATQRLANFLRHSSPNFGAIPSSTNVGHNTY-NH2 (disulfide 2-7; N-terminus assumed; SMILES CC[C@H](C)[C@H](NC(=O)[C@H](C)NC(=O)CNC(=O)[C@H](Cc1ccccc1)NC(=O)[C@H](CC(N)=O)NC(=O)[C@@H]1CCCN1C(=O)[C@H](CO)NC(=O)[C@H](CO)NC(=O)[C@H](Cc1c[nH]cn1)NC(=O)[C@H](CCCNC(=N)N)NC(=O)[C@H](CC(C)C)NC(=O)[C@H](Cc1ccccc1)NC(=O)[C@H](CC(N)=O)NC(=O)[C@H](C)NC(=O)[C@H](CC(C)C)NC(=O)[C@H](CCCNC(=N)N)NC(=O)[C@H](CCC(N)=O)NC(=O)[C@@H](NC(=O)[C@H](C)NC(=O)[C@@H]1CSSC[C@H](NC(=O)[C@@H](N)CCCCNC(=O)COCCOCCNC(=O)COCCOCCNC(=O)CC[C@H](NC(=O)CCCCCCCCCCCCCCCCCCC(=O)O)C(=O)O)C(=O)N[C@@H](CC(N)=O)C(=O)N[C@@H]([C@@H](C)O)C(=O)N[C@@H](C)C(=O)N[C@@H]([C@@H](C)O)C(=O)N1)[C@@H](C)O)C(=O)N1CCC[C@H]1C(=O)N[C@@H](CO)C(=O)N[C@@H](CO)C(=O)N[C@H](C(=O)N[C@@H](CC(N)=O)C(=O)N[C@H](C(=O)NCC(=O)N[C@@H](Cc1c[nH]cn1)C(=O)N[C@@H](CC(N)=O)C(=O)N[C@H](C(=O)N[C@@H](Cc1ccc(O)cc1)C(N)=O)[C@@H](C)O)C(C)C)[C@@H](C)O, also called compound 97) | 2.24 | 159 | 71.1 | 104
K([AEEA-AEEA-γGlu-C20 diacid])CNTATCATQRLANFLRHSSPNFGAIPSSTNVGRNTY-NH2 (disulfide 2-7; N-terminus assumed; SMILES CC[C@H](C)[C@H](NC(=O)[C@H](C)NC(=O)CNC(=O)[C@H](Cc1ccccc1)NC(=O)[C@H](CC(N)=O)NC(=O)[C@@H]1CCCN1C(=O)[C@H](CO)NC(=O)[C@H](CO)NC(=O)[C@H](Cc1c[nH]cn1)NC(=O)[C@H](CCCNC(=N)N)NC(=O)[C@H](CC(C)C)NC(=O)[C@H](Cc1ccccc1)NC(=O)[C@H](CC(N)=O)NC(=O)[C@H](C)NC(=O)[C@H](CC(C)C)NC(=O)[C@H](CCCNC(=N)N)NC(=O)[C@H](CCC(N)=O)NC(=O)[C@@H](NC(=O)[C@H](C)NC(=O)[C@@H]1CSSC[C@H](NC(=O)[C@@H](N)CCCCNC(=O)COCCOCCNC(=O)COCCOCCNC(=O)CC[C@H](NC(=O)CCCCCCCCCCCCCCCCCCC(=O)O)C(=O)O)C(=O)N[C@@H](CC(N)=O)C(=O)N[C@@H]([C@@H](C)O)C(=O)N[C@@H](C)C(=O)N[C@@H]([C@@H](C)O)C(=O)N1)[C@@H](C)O)C(=O)N1CCC[C@H]1C(=O)N[C@@H](CO)C(=O)N[C@@H](CO)C(=O)N[C@H](C(=O)N[C@@H](CC(N)=O)C(=O)N[C@H](C(=O)NCC(=O)N[C@@H](CCCNC(=N)N)C(=O)N[C@@H](CC(N)=O)C(=O)N[C@H](C(=O)N[C@@H](Cc1ccc(O)cc1)C(N)=O)[C@@H](C)O)C(C)C)[C@@H](C)O, also called compound 95) | 5.45 | 388 | 71.3 | 63.4

Continued by falling IC50 [1], values first:

IC50 [1] [nM] | IC50 (rat calcitonin receptor [2]) [nM] | Ratio rCT/rAmylin binding (rat calcitonin receptor [3]) | Ratio hCT/hAmylin binding [4] | Binder
0.529 | 62.2 | 118 | 79.6 | K([AEEA-AEEA-γGlu-C20 diacid])CNTATCATQRLANFLRHSSPNFGAIPSSTPVGSNTY-NH2 (disulfide 2-7; N-terminus assumed; SMILES CC[C@H](C)[C@H](NC(=O)[C@H](C)NC(=O)CNC(=O)[C@H](Cc1ccccc1)NC(=O)[C@H](CC(N)=O)NC(=O)[C@@H]1CCCN1C(=O)[C@H](CO)NC(=O)[C@H](CO)NC(=O)[C@H](Cc1c[nH]cn1)NC(=O)[C@H](CCCNC(=N)N)NC(=O)[C@H](CC(C)C)NC(=O)[C@H](Cc1ccccc1)NC(=O)[C@H](CC(N)=O)NC(=O)[C@H](C)NC(=O)[C@H](CC(C)C)NC(=O)[C@H](CCCNC(=N)N)NC(=O)[C@H](CCC(N)=O)NC(=O)[C@@H](NC(=O)[C@H](C)NC(=O)[C@@H]1CSSC[C@H](NC(=O)[C@@H](N)CCCCNC(=O)COCCOCCNC(=O)COCCOCCNC(=O)CC[C@H](NC(=O)CCCCCCCCCCCCCCCCCCC(=O)O)C(=O)O)C(=O)N[C@@H](CC(N)=O)C(=O)N[C@@H]([C@@H](C)O)C(=O)N[C@@H](C)C(=O)N[C@@H]([C@@H](C)O)C(=O)N1)[C@@H](C)O)C(=O)N1CCC[C@H]1C(=O)N[C@@H](CO)C(=O)N[C@@H](CO)C(=O)N[C@H](C(=O)N1CCC[C@H]1C(=O)N[C@H](C(=O)NCC(=O)N[C@@H](CO)C(=O)N[C@@H](CC(N)=O)C(=O)N[C@H](C(=O)N[C@@H](Cc1ccc(O)cc1)C(N)=O)[C@@H](C)O)C(C)C)[C@@H](C)O, also called compound 96)
0.137 | 24.1 | 176 | 74.1 | K([AEEA-AEEA-γGlu-C20 diacid])CNTATCATQRLANFLRHSSPNFGAIPSSTNVGPNTY-NH2 (disulfide 2-7; N-terminus assumed; SMILES CC[C@H](C)[C@H](NC(=O)[C@H](C)NC(=O)CNC(=O)[C@H](Cc1ccccc1)NC(=O)[C@H](CC(N)=O)NC(=O)[C@@H]1CCCN1C(=O)[C@H](CO)NC(=O)[C@H](CO)NC(=O)[C@H](Cc1c[nH]cn1)NC(=O)[C@H](CCCNC(=N)N)NC(=O)[C@H](CC(C)C)NC(=O)[C@H](Cc1ccccc1)NC(=O)[C@H](CC(N)=O)NC(=O)[C@H](C)NC(=O)[C@H](CC(C)C)NC(=O)[C@H](CCCNC(=N)N)NC(=O)[C@H](CCC(N)=O)NC(=O)[C@@H](NC(=O)[C@H](C)NC(=O)[C@@H]1CSSC[C@H](NC(=O)[C@@H](N)CCCCNC(=O)COCCOCCNC(=O)COCCOCCNC(=O)CC[C@H](NC(=O)CCCCCCCCCCCCCCCCCCC(=O)O)C(=O)O)C(=O)N[C@@H](CC(N)=O)C(=O)N[C@@H]([C@@H](C)O)C(=O)N[C@@H](C)C(=O)N[C@@H]([C@@H](C)O)C(=O)N1)[C@@H](C)O)C(=O)N1CCC[C@H]1C(=O)N[C@@H](CO)C(=O)N[C@@H](CO)C(=O)N[C@H](C(=O)N[C@@H](CC(N)=O)C(=O)N[C@H](C(=O)NCC(=O)N1CCC[C@H]1C(=O)N[C@@H](CC(N)=O)C(=O)N[C@H](C(=O)N[C@@H](Cc1ccc(O)cc1)C(N)=O)[C@@H](C)O)C(C)C)[C@@H](C)O, also called compound 98)
